The results in this text go back to US20030175830, “Reagents and methods for the screening of compounds useful in the treatment of neurological diseases” (Case Western Reserve University, published 2003).

This data set has as its target T1, Pet-1 (Rattus norvegicus, UniProt O70132 SEQ:1-340).
T1 sequence: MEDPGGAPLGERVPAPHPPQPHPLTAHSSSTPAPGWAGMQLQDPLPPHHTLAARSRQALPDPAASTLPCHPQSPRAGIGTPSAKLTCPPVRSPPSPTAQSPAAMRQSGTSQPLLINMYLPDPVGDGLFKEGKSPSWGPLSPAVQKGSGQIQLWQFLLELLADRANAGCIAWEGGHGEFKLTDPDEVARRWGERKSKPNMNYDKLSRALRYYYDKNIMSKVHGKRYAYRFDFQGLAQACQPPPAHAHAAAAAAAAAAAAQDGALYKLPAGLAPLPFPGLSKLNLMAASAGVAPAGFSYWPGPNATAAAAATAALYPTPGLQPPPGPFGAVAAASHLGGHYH
The data set is described as follows: competition; molar excess unlabeled PEA3 eliminated complexes. The conditions noted are these: tags: bacterially expressed; label: 32P.

B1: PEA3 site oligonucleotide (dsDNA)
DNA 1: GATCCAGGAAGTGAC
DNA 2: GTCACTTCCTGGATC
For the molecule B1, the binding result is on record as “binds”.
